Sequences and labels used below:
B5: Y1 scFv (human single-chain Fv antibody fragment Y1) (scFv)
scFv: EVQLVESGGGVVRPGGSLRLSCAASGFTFDDYGMSWVRQAPGKGLEWVSGINWNGGSTGYADSVKGRFTISRDNAKNSLYLQMNSLRAEDTAVYYCARMRAPVIWGQGTLVTVSRGGGGSGGGGSGGGGSSELTQDPAVSVALGQTVRITCQGDSLRSYYASWYQQKPGQAPVLVIYGKNNRPSGIPDRFSGSSSGNTASLTITGAQAEDEADYYCNSRDSSGNHVVFGGGTKLTVLGAAAEQKLISEEDLNGAA
notes: Clone from the Nissim I phage display library; Used biotinylated in Western blots; detected with rabbit anti-scFv or anti-VL in FACS and ELISA; also called scFv Y1; scFv-Y1

Experiment [1] has as its target T1, PSGL-1 (P-selectin glycoprotein ligand-1, CD162) on KG-1 cells or in KG-1 membrane preparations (human, UniProt Q14242 42-412, sulfated tyrosines in the N-terminal region).
T1 construct: whole, on cells; entries on KG-1 cells, lysates and membrane fractions are written against this molecule; also called KG-1细胞上Y1配体
T1 sequence (looked up): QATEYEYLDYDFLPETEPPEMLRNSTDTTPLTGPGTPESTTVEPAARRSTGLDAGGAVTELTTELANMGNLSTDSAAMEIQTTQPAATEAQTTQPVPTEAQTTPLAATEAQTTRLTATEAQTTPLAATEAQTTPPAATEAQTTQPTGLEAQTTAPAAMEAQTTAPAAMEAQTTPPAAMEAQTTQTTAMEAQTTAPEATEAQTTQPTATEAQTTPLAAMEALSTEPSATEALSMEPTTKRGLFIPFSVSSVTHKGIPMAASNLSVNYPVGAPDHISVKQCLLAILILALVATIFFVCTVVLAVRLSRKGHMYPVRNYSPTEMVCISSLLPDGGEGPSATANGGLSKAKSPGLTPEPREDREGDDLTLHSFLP
Briefly: radioreceptor assay, ELISA and FACS. In general terms: ELISA stands for enzyme-linked immunosorbent assay.

The target of experiment [2] is T1, PSGL-1 (P-selectin glycoprotein …). Briefly: second radioreceptor competition on KG-1 cells, labelled CONY1.
Experiment [3] shares this target. Briefly: radioreceptor competition on KG-1 cells, tracer 125I-Y1-IgG 2 ng/tube.
Experiment [4] addresses B5. As to the kind of experiment: competition ELISA, Y1 scFv on glycocalicin, peptide 1, 10, 100 μM.
In experiment [5] the target is T1, PSGL-1 (P-selectin glycoprotein …). As to the kind of experiment: Western blot. In general terms: In western blotting, separated proteins are transferred to a membrane and probed.
Experiment [6] addresses T2, human lumican from plasma (human, UniProt P51884 19-338).
T2 construct: also called H P-配体2
T2 sequence (looked up): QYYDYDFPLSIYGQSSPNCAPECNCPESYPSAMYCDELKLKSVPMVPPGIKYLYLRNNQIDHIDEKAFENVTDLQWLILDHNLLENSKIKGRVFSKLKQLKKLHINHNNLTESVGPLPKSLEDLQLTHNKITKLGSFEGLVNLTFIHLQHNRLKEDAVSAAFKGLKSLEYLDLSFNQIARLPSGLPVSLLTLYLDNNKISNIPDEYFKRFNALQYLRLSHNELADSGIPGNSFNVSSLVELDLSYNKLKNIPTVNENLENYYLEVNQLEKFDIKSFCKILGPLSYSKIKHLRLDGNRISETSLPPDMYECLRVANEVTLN
As to the kind of experiment: binding to human plasma proteins.

For experiment [7], the target named is T1, PSGL-1 (P-selectin glycoprotein …). Briefly: FACS on KG-1 cells.

Consider 7 molecules from patent publication CN1649900A (dated 2005).

Where no end group is shown, it is not given here. [ ]: non-standard residue; d: D form. sY = N[C@@H](Cc1ccc(OS(=O)(=O)O)cc1)C(=O)O

B1: S-S Y1 dimer (disulfide-bridged dimer of Y1 scFv with a cysteine added at the carboxy terminus) (other)
chain: EVQLVESGGGVVRPGGSLRLSCAASGFTFDDYGMSWVRQAPGKGLEWVSGINWNGGSTGYADSVKGRFTISRDNAKNSLYLQMNSLRAEDTAVYYCARMRAPVIWGQGTLVTVSRGGGGSGGGGSGGGGSSELTQDPAVSVALGQTVRITCQGDSLRSYYASWYQQKPGQAPVLVIYGKNNRPSGIPDRFSGSSSGNTASLTITGAQAEDEADYYCNSRDSSGNHVVFGGGTKLTVLGAAAEQKLISEEDLNGAAC
In the case of B1, the “fold binding over Y1 scFv monomer” value in experiment [1] was no less than 20 fold. Also, in experiment [2], the Kd (commonly the constant that tells how readily two partners part at equilibrium) was determined as 0.05 µM and the “fold higher affinity than CONY1” value stood at 20 fold. In experiment [3], the Kd is 0.04 µM, the “fold higher avidity than CONY1” value came out at 30 fold and the “fold lower avidity than the whole Y1 antibody” value came to 2 fold.

B2: F-YY, non-sulfated peptide from the fibrinogen γ prime chain (peptide)
peptide: VRPEHPAETEYESLYPEDDL
As to B2, in experiment [4], the binding result is “no binding (tested: 100μM)”.

B3: Y1-IgG (full-size IgG1 lambda antibody built from the Y1 Fv) (antibody)
chain 1: EVQLVESGGGVVRPGGSLRLSCAASGFTFDDYGMSWVRQAPGKGLEWVSGINWNGGSTGYADSVKGRFTISRDNAKNSLYLQMNSLRAEDTAVYYCARMRAPVIWGQGTLVTVSR
chain 2: SELTQDPAVSVALGQTVRITCQGDSLRSYYASWYQQKPGQAPVLVIYGKNNRPSGIPDRFSGSSSGNTASLTITGAQAEDEADYYCNSRDSSGNHVVFGGGTKLTVLG
The molecule B3 had a Kd in experiment [3] of roughly 0.02 µM.

B4: F-Y*Y*, sulfated peptide from the fibrinogen γ prime chain (peptide)
peptide: VRPEHPAETE[sY]ESL[sY]PEDDL
B4: in experiment [4], the binding result is listed as “no binding (tested: 100μM)”.

As to B5, the binding result in experiment [5] and in experiment [6] was “binds” each time.

B6: Y17 scFv (scFv)
scFv: EVQLVESGGGVVRPGGSLRLSCAASGFTFDDYGMSWVRQAPGKGLEWVSGINWNGGSTGYADSVKGRFTISRDNAKNSLYLQMNSLRAEDTAVYYCARLTHPYFWGQGTLVTVSRGGGGSGGGGSGGGGSSELTQDPAVSVALGQTVRITCQGDSLRSYYASWYQQKPGQAPVLVIYGKNNRPSGIPDRFSGSSSGNTASLTITGAQAEDEADYYCNSRDSSGNHVVFGGGTKLTVLGAAAEQKLISEEDLNGAA
notes: Second scFv clone selected on platelets
B6: in experiment [7], the binding result was “binds”.

B7: CONY1, Y1 scFv monomer in which the myc tag is deleted or replaced by Lys-Ala-Lys (KAK) (scFv)
scFv: EVQLVESGGGVVRPGGSLRLSCAASGFTFDDYGMSWVRQAPGKGLEWVSGINWNGGSTGYADSVKGRFTISRDNAKNSLYLQMNSLRAEDTAVYYCARMRAPVIWGQGTLVTVSRGGGGSGGGGSGGGGSSELTQDPAVSVALGQTVRITCQGDSLRSYYASWYQQKPGQAPVLVIYGKNNRPSGIPDRFSGSSSGNTASLTITGAQAEDEADYYCNSRDSSGNHVVFGGGTKLTVLG
notes: also called CONY1 scFv; Y1-kak
In the case of B7, the Kd in experiment [2] was roughly 1 µM.
